The chains are these.
B1: Prelamin-A/C (Homo sapiens), P02545-2 (parent)
chain: METPSQRRATRSGAQASSTPLSPTRITRLQEKEDLQELNDRLAVYIDRVRSLETENAGLRLRITESEEVVSREVSGIKAAYEAELGDARKTLDSVAKERARLQLELSKVREEFKELKARNTKKEGDLIAAQARLKDLEALLNSKEAALSTALSEKRTLEGELHDLRGQVAKLEAALGEAKKQLQDEMLRRVDAENRLQTMKEELDFQKNIYSEELRETKRRHETRLVEIDNGKQREFESRLADALQELRAQHEDQVEQYKKELEKTYSAKLDNARQSAERNSNLVGAAHEELQQSRIRIDSLSAQLSQLQKQLAAKEAKLRDLEDSLARERDTSRRLLAEKEREMAEMRARMQQQLDEYQELLDIKLALDMEIHAYRKLLEGEEERLRLSPSPTSQRSRGRASSHSSQTQGGGSVTKKRKLESTESRSSFSQHARTSGRVAVEEVDEEGKFVRLRNKSNEDQSMGNWQIKRQNGDDPLLTYRFPPKFTLKAGQVVTIWAAGAGATHSPPTDLVWKAQNTWGCGNSLRTALINSTGEEVAMRKLVRSVTVVEDDEDEDGDDLLHHHHVSGSRR
B2: Vitamin D3 receptor (Homo sapiens), P11473 (parent)
chain: MEAMAASTSLPDPGDFDRNVPRICGVCGDRATGFHFNAMTCEGCKGFFRRSMKRKALFTCPFNGDCRITKDNRRHCQACRLKRCVDIGMMKEFILTDEEVQRKREMILKRKEEEALKDSLRPKLSEEQQRIIAILLDAHHKTYDPTYSDFCQFRPPVRVNDGGGSHPSRPNSRHTPSFSGDSSSSCSDHCITSSDMMDSSSFSNLDLSEEDSDDPSVTLELSQLSMLPHLADLVSYSIQKVIGFAKMIPGFRDLTSEDQIVLLKSSAIEVIMLRSNESFTMDDMSWTCGNQDYKYRVSDVTKAGHSLELIEPLIKFQVGLKKLNLHEEEHVLLMAICIVSPDRPGVQDAALIEAIQDRLSNTLQTYIRCRHPPPGSHLLYAKMIQKLADLRSLNEEHSKQYRCLSFQPECSMKLTPLVLEVFGNEIS
B3: SWI/SNF-related matrix-associated actin-dependent regulator of chromatin subfamily A member 2 (Homo sapiens), P51531-1 (parent)
chain: MSTPTDPGAMPHPGPSPGPGPSPGPILGPSPGPGPSPGSVHSMMGPSPGPPSVSHPMPTMGSTDFPQEGMHQMHKPIDGIHDKGIVEDIHCGSMKGTGMRPPHPGMGPPQSPMDQHSQGYMSPHPSPLGAPEHVSSPMSGGGPTPPQMPPSQPGALIPGDPQAMSQPNRGPSPFSPVQLHQLRAQILAYKMLARGQPLPETLQLAVQGKRTLPGLQQQQQQQQQQQQQQQQQQQQQQQPQQQPPQPQTQQQQQPALVNYNRPSGPGPELSGPSTPQKLPVPAPGGRPSPAPPAAAQPPAAAVPGPSVPQPAPGQPSPVLQLQQKQSRISPIQKPQGLDPVEILQEREYRLQARIAHRIQELENLPGSLPPDLRTKATVELKALRLLNFQRQLRQEVVACMRRDTTLETALNSKAYKRSKRQTLREARMTEKLEKQQKIEQERKRRQKHQEYLNSILQHAKDFKEYHRSVAGKIQKLSKAVATWHANTEREQKKETERIEKERMRRLMAEDEEGYRKLIDQKKDRRLAYLLQQTDEYVANLTNLVWEHKQAQAAKEKKKRRRRKKKAEENAEGGESALGPDGEPIDESSQMSDLPVKVTHTETGKVLFGPEAPKASQLDAWLEMNPGYEVAPRSDSEESDSDYEEEDEEEESSRQETEEKILLDPNSEEVSEKDAKQIIETAKQDVDDEYSMQYSARGSQSYYTVAHAISERVEKQSALLINGTLKHYQLQGLEWMVSLYNNNLNGILADEMGLGKTIQTIALITYLMEHKRLNGPYLIIVPLSTLSNWTYEFDKWAPSVVKISYKGTPAMRRSLVPQLRSGKFNVLLTTYEYIIKDKHILAKIRWKYMIVDEGHRMKNHHCKLTQVLNTHYVAPRRILLTGTPLQNKLPELWALLNFLLPTIFKSCSTFEQWFNAPFAMTGERVDLNEEETILIIRRLHKVLRPFLLRRLKKEVESQLPEKVEYVIKCDMSALQKILYRHMQAKGILLTDGSEKDKKGKGGAKTLMNTIMQLRKICNHPYMFQHIEESFAEHLGYSNGVINGAELYRASGKFELLDRILPKLRATNHRVLLFCQMTSLMTIMEDYFAFRNFLYLRLDGTTKSEDRAALLKKFNEPGSQYFIFLLSTRAGGLGLNLQAADTVVIFDSDWNPHQDLQAQDRAHRIGQQNEVRVLRLCTVNSVEEKILAAAKYKLNVDQKVIQAGMFDQKSSSHERRAFLQAILEHEEENEEEDEVPDDETLNQMIARREEEFDLFMRMDMDRRREDARNPKRKPRLMEEDELPSWIIKDDAEVERLTCEEEEEKIFGRGSRQRRDVDYSDALTEKQWLRAIEDGNLEEMEEEVRLKKRKRRRNVDKDPAKEDVEKAKKRRGRPPAEKLSPNPPKLTKQMNAIIDTVINYKDRCNVEKVPSNSQLEIEGNSSGRQLSEVFIQLPSRKELPEYYELIRKPVDFKKIKERIRNHKYRSLGDLEKDVMLLCHNAQTFNLEGSQIYEDSIVLQSVFKSARQKIAKEEESEDESNEEEEEEDEEESESEAKSVKVKIKLNKKDDKGRDKGKGKKRPNRGKAKPVVSDFDSDEEQDEREQSEGSGTDDE
partner: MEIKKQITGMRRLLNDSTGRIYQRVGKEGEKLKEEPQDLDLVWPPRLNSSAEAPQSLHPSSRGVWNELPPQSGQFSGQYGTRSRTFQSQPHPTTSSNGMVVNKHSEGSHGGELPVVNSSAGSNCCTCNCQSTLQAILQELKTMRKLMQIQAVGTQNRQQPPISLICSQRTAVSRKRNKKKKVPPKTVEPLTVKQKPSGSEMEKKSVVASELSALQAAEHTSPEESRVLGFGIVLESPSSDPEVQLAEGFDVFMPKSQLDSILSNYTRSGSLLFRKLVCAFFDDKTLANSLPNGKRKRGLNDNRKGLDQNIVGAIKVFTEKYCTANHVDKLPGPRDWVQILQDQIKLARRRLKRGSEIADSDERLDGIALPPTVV

One assay covers variants of B1. Conditions: with syce1_human SYCE1, Q8N0S2.
syce1_human SYCE1, Q8N0S2, sequence (Q8N0S2 whole entry): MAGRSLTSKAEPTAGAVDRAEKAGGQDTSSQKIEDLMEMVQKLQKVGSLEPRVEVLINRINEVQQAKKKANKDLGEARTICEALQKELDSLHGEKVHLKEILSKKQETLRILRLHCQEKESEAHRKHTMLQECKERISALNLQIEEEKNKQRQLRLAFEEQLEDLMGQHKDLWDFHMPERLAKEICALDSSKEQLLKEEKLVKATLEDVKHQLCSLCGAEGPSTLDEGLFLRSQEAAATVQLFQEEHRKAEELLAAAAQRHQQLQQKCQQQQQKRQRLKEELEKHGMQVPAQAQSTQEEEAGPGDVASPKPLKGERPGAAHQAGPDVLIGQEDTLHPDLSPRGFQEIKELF
As for L162P, the “effect of a mutation on the interaction” value is “disrupting interaction strength”.

Regarding R377L, the “effect of a mutation on the interaction” value is on record as “disrupting interaction strength”.

As for R60G, the “effect of a mutation on the interaction” value is given as “disrupting interaction strength”.

In another assay the parent is B2. The settings on record: with meox2_human MEOX2, P50222.
meox2_human MEOX2, P50222, sequence (P50222 whole entry): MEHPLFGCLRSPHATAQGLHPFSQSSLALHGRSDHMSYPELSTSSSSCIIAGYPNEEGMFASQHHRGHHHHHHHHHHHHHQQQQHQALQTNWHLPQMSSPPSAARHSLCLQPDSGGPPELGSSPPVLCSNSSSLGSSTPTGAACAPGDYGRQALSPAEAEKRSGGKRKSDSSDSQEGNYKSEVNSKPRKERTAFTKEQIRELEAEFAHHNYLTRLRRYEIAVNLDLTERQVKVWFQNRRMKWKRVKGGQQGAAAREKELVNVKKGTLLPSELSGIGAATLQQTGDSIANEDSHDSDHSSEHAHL
For the variant E329K, the “effect of a mutation on the interaction” value was “disrupting interaction strength”.

For G33D, the “effect of a mutation on the interaction” value is listed as “with no effect”.

Turning to I268T, the “effect of a mutation on the interaction” value is given as “with no effect”.

Turning to C190W, the “effect of a mutation on the interaction” value is recorded as “disrupting interaction strength”.

The variants in another assay derive from B3. The settings on record: with BEND7, Q8N7W2-2.
D1546E: the “effect of a mutation on the interaction” value was “with no effect”.

The variants in a further assay derive from B3. Conditions: with BEND7, Q8N7W2-2. The source holds these as a separate data set.
With D1546E, the “effect of a mutation on the interaction” value is listed as “with no effect”.

For the origin of these results see IntAct's records for PubMed 25910212.
